Laboratory results as given in the RNAGym collection of RNA variant scans (doi:10.1073/pnas.2313332121).

B1: TPR t1 (parent)
chain: GACCAAUCUGCCCUCAGAGCUCGAGAACAUCUUCGGAUGCAGAGGAGGCAGGCUUCGGUGGCGCGAUAGCGCCAACGUCCUCAACCUCCAAUGCAUCCCACCACAUGAUGAUGCCUGAAGAGCCUUGGUUUUUUG

Variants of: B1
Test: polymerase ribozyme fitness, log enrichment relative to wild type (log ratio); higher = more active; in vitro selection for triplet polymerase activity
How it was run: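 Fitness measures genotype enrichment against wild-type enrichment on a logarithmic scale, with inverse-variance-weighted averaging of replicates. The logarithm is base 2, and genotypes were kept only with ≥10 input reads and ≥1 read per output in Illumina sequencing. The sequenced libraries came from one triplicate in vitro selection round, including frozen incubation at −7 °C, of PCR-built, transcribed mutant libraries of each subunit of a heterodimeric triplet polymerase ribozyme.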

| Variant | polymerase ribozyme fitness (log ratio) |
| --- | --- |
| GACCAAUCUGCCCUCAGAGCUCGAGAACAUCUUCGGAUGUAGAGGAAGCAGGCUUCGGUGGCGCGAUAGCGCCAACGUCCUCAACCUCCAAUGCAUCCCACCACAUGAAGAUGUCUGAAGAGCCUUGGUUUUUUG [C40U G47A U109A C114U] | -6.24 |
| GACCAAUCUGCCCUCAGAGCUCGAGAACAUCUUCGGAUGCAGAGGAGGCAGGCUUCGGUGGCGCGAUAGCGCCAACGUCCUCAACCUCCAAUCCACCCCACCACAUGAUAAUGCCUGCAGAGCCUUGGUUUUUUG [G93C U96C G110A A118C] | -2.57 |
| GAUCAACCUGCCCUCAGAGCUCGAGAACAUCUUCGGAUGCAGAGGAGUCAGGCUUCGGUGGCGCGAUAGUGCCAACGUCCUCAACCUCCAAUGCAUCCCACCACAUGAUGAUGCCUGAAGAGCCUUGGUUUUUUG [C3U U7C G48U C70U] | -1.98 |
| GACCAAUCUGCCCUCAGAGCUCGAGAACAUCUUCGGAUGCAGAGGAGGCAGGCUUCGGUGGCGCGAUAGUGCCAACGUCCUCAACCUCCACUGCAUCCCAUCACAUGAUGAAGCCUGAAGAGCCUUGGCUUUUUG [C70U A91C C101U U112A U129C] | -6.24 |
| GACCAAUCUGCCCUCAGAGCUCGAGAACAUCUUCGGAUUCAGAGGAGGCAGGCUUCGGUGGCGCGAUAGCGCCAACGUCCUCAACCUCCAAUGCAUCCCACCACAUGAUGAUGUCUGAAAAGCCUUCGUUUUUUG [G39U C114U G120A G127C] | -2.98 |
| GACCAAUCUGCCCUCAGAGCUCGAGAACAUCUUCGGAUGCAGAGGAGGCAGGCUUCGGUGGCACGAUAGCGCCAACGUCCUCAACCUCCAAUGCAUCCCACCACAUGACGAUGCCUGAAGAGCCUUGGUUUUUUG [G63A U109C] | -2.75 |
| GACCAAGCUGCCCUCAGAGCUCGAGAACUUCUUCGGAUGCAAAGGAGGCAGGUUUCGGUGGUGCGAUAGCGCCAACGUCCUCAACCUCCAAUGCAUCCCACCACAUGAUGAUGCCUGAAGAGCCUUGGUUUUUUG [U7G A29U G42A C53U C62U] | -3.19 |
| GACCAAUCUGCCCUCAGAGCUCGAGAACAUCUUCGGAUGCAGAGGAGGCAGGCUUCGGUGGCGCGAUAACGCCAACGCCCUCACCCUCCAAUGCAUCCCACCACAUGAUGAUGCCUGAAGAGCCUUGGUUUUUUG [G69A U78C A84C] | -3.57 |
| GACCAAUCUGCCCUCAGAGCUCGAGAACAUCUUCGGAUGCAGAGGAGGCAUGCUUCGGUGGCGCGAUAGCGCCAACGUCCUAAACCUCCAAUGCCUCCCACCACAUGAUGAUGCCUGAAGAGCUUUGGUUUUUUG [G51U C82A A95C C124U] | -4.21 |
| GACCAAUCUGCCCUCAGAGCUCGAGAACAUCUUCGGAUGCAGAUGAGGCAGGCUUCGGUGGCGCGAUAUCGCCAACGUCCUCAACCUCCAAUGCAUCCCACCACAUGAUGAUGCCUGAAGAGCCUUGGUUUUUUG [G44U G69U] | -0.207 |
| GACCAAUCUGCCUUCAGAGCUCGAGAAGAUCUUCGGAUGCAGGGGAGGCAGGCUUCGGUGGUGCGAUAGCGCCAACGUCCUCAACCUCCAAUGCAUCCCACCACAUGAUCAUGCCUGAAGAGCCUUGGUUUUUUG [C13U C28G A43G C62U G110C] | -1.17 |
| GACCAAUCUGCCCUCAGAGCUCGAGAACAUCUUCGGAUGUAGAGGAGGCAGGCUUCGGUGGUGCGAUAGCGCCAACGUCCUCAACCUCCAAUGCAUCCCACCACAUGAUGAUGCCUGAAGAGCCUUGGUUUUUUU [C40U C62U G135U] | -1.68 |
| GACCAAUCUGCCCUCAGAGCUCGAGAACAUCUUCGGAUGCAGAGAAGGCAGGCUUCGGUGGCGCGAUAGCGCCAACGUCCUCAACCUCCAAUGCAUCCCACCACAUGGUGAUGCCUGAAGAGCCUUGGUUUUUUG [G45A A108G] | -2.36 |
| GACCAAUCUGCCCUCAGAGCUCGAGAACAUCUUCGGAUACAGAAGAGGCAGGCUUCGGUGGGGCGAUAGCGCCAACGCCCUCAACCUCCAAUGCAUCCCACCACAUGAUGAUGCCUGAAGAGCCUUGGUUUUUUG [G39A G44A C62G U78C] | -6.69 |
| GACCAAUCUGCCGUCAGAGCUCGAGAACAUCUUCGGAUGCAGAGGAGGCAGGCUUCGGUGGAGCGAUAGCGCCAACGUCCUCAACCUCCAAUGCAUCCCACCACAUGAUGAUGCCUGAAGAGCAUUGGUUUUUUG [C13G C62A C124A] | 0.6 |
| GACCAAUCUGCCCUCAGAGCUCGAGAACAUCUUCGGAUGCAGAGGAGGCAGGCUUCGGUGUCGCGAUAGCGCCAACGUCCUCGACCUCCAAUGCAUCCCACCACAUGAUGACGCCUGAAGAGCCUUGGUUUUUUG [G61U A83G U112C] | 1.59 |
| GACCAAUCUGCCCUCAGAGCUCGAGAACAUCUUCGGAUGCAGAGGAGGCAGGCUUCGGUGGCGCGAUAGGGCCAACGCCCUCAACCUCCAAUGCAUCCCACCACAUGAUGAUGUCUGAAGAGCCUUGGUUUUUUG [C70G U78C C114U] | -5.32 |
| GACUAAUCUGCCCUCAGAGCUCGAGAACAUCUUCGGAUGCAGAGGAGGCAGGCUUCGGUGGCGCGAUAGCACCAACUUCCUCAACCUCCAAUGCAUCCCACCACAUGAUGAUGCCUGAAGAGCCUUGGUUUUUUG [C4U G71A G77U] | -1.79 |
| GACCAAUCUGCCCUCAGAGCUCGAGAACUUCUUCGGAUGCAGAGGAGGCAGGCUUCGGUGGCGCGAUAGCGCCAACGUCCUCAACCUCCAAUGCAUCCCACCACAUGAUGAUGCCUGAGGAGCCUUGGUUUUUUG [A29U A119G] | -0.662 |
| GACCAAUCUGCCCUCAGAGCUCGAGAACAUCUUCGGAUGCAGACGAGGCAGGCUUCGGUGCCGCGAUAGCGCCAACGCCCUCAACCUCCAAUGCAUCACACCACAUGAUGAUUCCUGAAGAGCCUUGGUUUUUUG [G44C G61C U78C C98A G113U] | -7.8 |
| GACCAAUCUGGCCUCAGAACUCGAGAACAUCUUCGGAUGCAGAGGAGGCAGGCUUUGGUGGCGCGAUAGCGCUAACGUCCUCAACCUCCAAUGCAUCCCACCACAUGAUGAUGCCUGAAGAGCCUUGGUUUUUUG [C11G G19A C56U C73U] | -2.04 |
